Results as given in the RNAGym collection of RNA variant scans (doi:10.1093/molbev/msab373).

B1: Azoarcus group I ribozyme (parent)
chain: GUGCCUUGCGCCGGGAAACCACGCAAGGGAUGGUGUCAAAUUCGGCGAAACCUAAGCGCCCGCCCGGGCGUAUGGCAACGCCGAGCCAAGCUUCGGCGCCUGCGCCGAUGAAGGUGUAGAGACUAGACGGCACCCACCUAAGGCAAACGCUAUGGUGAAGGCAUAGUCCAGGGAGUGGCGAAAGUCACACAAACCGG

Variants of: B1
Assay: reverse-splicing fitness (ratio to wild type); higher = more active; in vitro selection; Mg2+ level not given
Outline: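 An in vitro group I ribozyme library with randomized positions was T7-transcribed and gel-purified. In triplicate, 10 pmol RNA in EPPS pH 7.5 was reacted with 50 pmoles of a 30-nt RNA substrate for 1 h at 37 °C across several added MgCl2 levels (1–48 mM), then stopped with EDTA. Products were reverse transcribed from a substrate-complementary primer, PCR-amplified and sequenced (HiSeq 4000). Fitness is a variant's read proportion after selection over that before, normalised to wild type.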

With C82A A111U A145C C150G C169A U176G as the variant, how does the reverse-splicing fitness read?
The reverse-splicing fitness was 0.00755.

For C82A A111U A145C C150G C169A U176C, which reverse-splicing fitness is on record?
The reverse-splicing fitness was 0.0076.

With C82A A111U A145C C150U C169G U176G as the variant, how does the reverse-splicing fitness read?
Its reverse-splicing fitness is 0.00743.

Which reverse-splicing fitness does the source give for C82A A111U A145C C150U C169G U176C here?
Its reverse-splicing fitness is 0.0141.

For C82A A111U A145C C150U C169G U176A, which reverse-splicing fitness is on record?
The reverse-splicing fitness was 0.0233.

With C82A A111U A145C as the variant, how does the reverse-splicing fitness read?
The reverse-splicing fitness was 0.28.

With C82A A111U A145G as the variant, how does the reverse-splicing fitness read?
The reverse-splicing fitness was 0.313.

For C82A A111U A145C C150G C169U U176A, which reverse-splicing fitness is on record?
Its reverse-splicing fitness is 0.00896.

For C82A A111U A145C C150G C169U U176G, which reverse-splicing fitness is on record?
Its reverse-splicing fitness is 0.00633.

Which reverse-splicing fitness does the source give for C82A A111U A145C C150G C169U U176C here?
Its reverse-splicing fitness is 0.0103.

With C82A A111U A120U U176C as the variant, how does the reverse-splicing fitness read?
Its reverse-splicing fitness is 0.0105.

With C82A A111U A120U U176G as the variant, how does the reverse-splicing fitness read?
Its reverse-splicing fitness is 0.00275.

For C82A A111U A120U U176A, which reverse-splicing fitness is on record?
The reverse-splicing fitness was 0.00842.

For C82A A111U A120U A145G C150U U176G, which reverse-splicing fitness is on record?
The reverse-splicing fitness was 0.00393.

For C82A A111U A120U A145G C150U U176C, which reverse-splicing fitness is on record?
Its reverse-splicing fitness is 0.0125.

For C82A A111U A120U A145G C150U U176A, which reverse-splicing fitness is on record?
Its reverse-splicing fitness is 0.01.

Which reverse-splicing fitness does the source give for C82A A111U A120U here?
The reverse-splicing fitness was 0.0228.

For C82A A111U A120U A145G C150A C169A U176G, which reverse-splicing fitness is on record?
The reverse-splicing fitness was 0.00392.

For C82A A111U A120U A145G C150A C169A U176A, which reverse-splicing fitness is on record?
The reverse-splicing fitness was 0.0108.

With C82A A111U A120U A145G C150A C169A U176C as the variant, how does the reverse-splicing fitness read?
Its reverse-splicing fitness is 0.00627.

For C82A A111U A120U A145U U176C, which reverse-splicing fitness is on record?
Its reverse-splicing fitness is 0.0117.

For C82A A111U A120U A145U U176G, which reverse-splicing fitness is on record?
Its reverse-splicing fitness is 0.00335.

Which reverse-splicing fitness does the source give for C82A A111U A120U A145U U176A here?
The reverse-splicing fitness was 0.0073.

With C82A A111U A120U C150G C169U as the variant, how does the reverse-splicing fitness read?
The reverse-splicing fitness was 0.00659.

Which reverse-splicing fitness does the source give for C82A A111U A120U C150G C169G here?
The reverse-splicing fitness was 0.00683.

For C82A A111U A120U C150G C169A, which reverse-splicing fitness is on record?
Its reverse-splicing fitness is 0.00872.

With C82A A111U A120U A145C C169A U176G as the variant, how does the reverse-splicing fitness read?
The reverse-splicing fitness was 0.00209.

For C82A A111U A120U A145C C169A U176C, which reverse-splicing fitness is on record?
The reverse-splicing fitness was 0.00227.

With C82A A111U A120U A145C C169A U176A as the variant, how does the reverse-splicing fitness read?
The reverse-splicing fitness was 0.00304.

Which reverse-splicing fitness does the source give for C82A A111U A120U A145C C150G C169G U176G here?
Its reverse-splicing fitness is 0.00242.

Which reverse-splicing fitness does the source give for C82A A111U A120U A145C C150G C169G U176A here?
Its reverse-splicing fitness is 0.00351.

For C82A A111U A120U A145C C150G C169G U176C, which reverse-splicing fitness is on record?
The reverse-splicing fitness was 0.0024.

Which reverse-splicing fitness does the source give for C82A A111U A120U A145G C150G C169U U176A here?
Its reverse-splicing fitness is 0.00862.

Which reverse-splicing fitness does the source give for C82A A111U A120U A145G C150G C169U U176C here?
Its reverse-splicing fitness is 0.0089.

With C82A A111U A120U A145G C150G C169U U176G as the variant, how does the reverse-splicing fitness read?
The reverse-splicing fitness was 0.00513.

With C82A A111U A145C C150A C169A U176A as the variant, how does the reverse-splicing fitness read?
Its reverse-splicing fitness is 0.0149.

Which reverse-splicing fitness does the source give for C82A A111U A145C C150A C169A U176C here?
Its reverse-splicing fitness is 0.00757.

With C82A A111U A145C C150A C169A U176G as the variant, how does the reverse-splicing fitness read?
Its reverse-splicing fitness is 0.00855.

With C82A A111U A145C C150G C169G U176C as the variant, how does the reverse-splicing fitness read?
The reverse-splicing fitness was 0.00829.

For C82A A111U A145C C150G C169G U176G, which reverse-splicing fitness is on record?
The reverse-splicing fitness was 0.00637.

With C82A A111U A145C C150G C169G U176A as the variant, how does the reverse-splicing fitness read?
Its reverse-splicing fitness is 0.00985.

Which reverse-splicing fitness does the source give for C82A A111U A145C C169G U176C here?
Its reverse-splicing fitness is 0.0185.

With C82A A111U A145C C169G U176G as the variant, how does the reverse-splicing fitness read?
The reverse-splicing fitness was 0.00654.

For C82A A111U A145C C169G U176A, which reverse-splicing fitness is on record?
The reverse-splicing fitness was 0.0281.

For C82A A111U A145C C150G, which reverse-splicing fitness is on record?
Its reverse-splicing fitness is 0.0267.

For C82A A111U A145C C150A, which reverse-splicing fitness is on record?
The reverse-splicing fitness was 0.0156.

For C82A A111U A145C C150U, which reverse-splicing fitness is on record?
The reverse-splicing fitness was 0.0537.

For C82A A111U A120U C150U U176G, which reverse-splicing fitness is on record?
The reverse-splicing fitness was 0.00345.

With C82A A111U A120U C150U U176C as the variant, how does the reverse-splicing fitness read?
Its reverse-splicing fitness is 0.00953.

For C82A A111U A120U C150U U176A, which reverse-splicing fitness is on record?
The reverse-splicing fitness was 0.00753.

With C82A A111U A120U A145U C150U U176A as the variant, how does the reverse-splicing fitness read?
Its reverse-splicing fitness is 0.00828.

For C82A A111U A120U A145U C150U U176G, which reverse-splicing fitness is on record?
The reverse-splicing fitness was 0.00385.

Which reverse-splicing fitness does the source give for C82A A111U A120U A145U C150U U176C here?
Its reverse-splicing fitness is 0.00878.

For C82A A111U A120U A145G C169U U176C, which reverse-splicing fitness is on record?
Its reverse-splicing fitness is 0.00428.

For C82A A111U A120U A145G C169U U176G, which reverse-splicing fitness is on record?
The reverse-splicing fitness was 0.00182.

With C82A A111U A120U A145G C169U U176A as the variant, how does the reverse-splicing fitness read?
Its reverse-splicing fitness is 0.00414.

With C82A A111U A145C C150G C169A as the variant, how does the reverse-splicing fitness read?
Its reverse-splicing fitness is 0.00825.

With C82A A111U A145C C150G C169G as the variant, how does the reverse-splicing fitness read?
Its reverse-splicing fitness is 0.00746.

With C82A A111U A145C C150G C169U as the variant, how does the reverse-splicing fitness read?
The reverse-splicing fitness was 0.00999.

Which reverse-splicing fitness does the source give for C82A A111U A120U C150U C169U here?
The reverse-splicing fitness was 0.00507.

With C82A A111U A120U C150U C169G as the variant, how does the reverse-splicing fitness read?
The reverse-splicing fitness was 0.00623.

For C82A A111U A120U C150U C169A, which reverse-splicing fitness is on record?
Its reverse-splicing fitness is 0.00594.

Which reverse-splicing fitness does the source give for C82A A111U A120U A145C C150U U176A here?
The reverse-splicing fitness was 0.00482.

Which reverse-splicing fitness does the source give for C82A A111U A120U A145C C150U U176C here?
The reverse-splicing fitness was 0.00533.

With C82A A111U A120U A145C C150U U176G as the variant, how does the reverse-splicing fitness read?
The reverse-splicing fitness was 0.00319.

Which reverse-splicing fitness does the source give for C82A A111U A145C C150U C169A U176C here?
The reverse-splicing fitness was 0.00736.

For C82A A111U A145C C150U C169A U176G, which reverse-splicing fitness is on record?
The reverse-splicing fitness was 0.00747.

With C82A A111U A145C C150U C169A U176A as the variant, how does the reverse-splicing fitness read?
Its reverse-splicing fitness is 0.0133.

With C82A A111U A120U A145U C150G C169G U176G as the variant, how does the reverse-splicing fitness read?
The reverse-splicing fitness was 0.00241.

For C82A A111U A120U A145U C150G C169G U176A, which reverse-splicing fitness is on record?
The reverse-splicing fitness was 0.00327.

Which reverse-splicing fitness does the source give for C82A A111U A120U A145U C150G C169G U176C here?
The reverse-splicing fitness was 0.00281.

With C82A A111U A120U A145U C150A as the variant, how does the reverse-splicing fitness read?
The reverse-splicing fitness was 0.00619.

Which reverse-splicing fitness does the source give for C82A A111U A120U A145U C150G here?
The reverse-splicing fitness was 0.00631.

With C82A A111U A120U A145U C150U as the variant, how does the reverse-splicing fitness read?
Its reverse-splicing fitness is 0.0173.

Which reverse-splicing fitness does the source give for C82A A111U A120U C150A C169A U176A here?
Its reverse-splicing fitness is 0.00679.

Which reverse-splicing fitness does the source give for C82A A111U A120U C150A C169A U176G here?
Its reverse-splicing fitness is 0.00306.

With C82A A111U A120U C150A C169A U176C as the variant, how does the reverse-splicing fitness read?
Its reverse-splicing fitness is 0.00509.

For C82A A111U A145C C150G U176G, which reverse-splicing fitness is on record?
Its reverse-splicing fitness is 0.00428.

Which reverse-splicing fitness does the source give for C82A A111U A145C C150G U176A here?
Its reverse-splicing fitness is 0.0104.

Which reverse-splicing fitness does the source give for C82A A111U A145C C150G U176C here?
The reverse-splicing fitness was 0.0163.

With C82A A111U A145C C150U U176A as the variant, how does the reverse-splicing fitness read?
Its reverse-splicing fitness is 0.0254.

For C82A A111U A145C C150U U176C, which reverse-splicing fitness is on record?
The reverse-splicing fitness was 0.0396.

Which reverse-splicing fitness does the source give for C82A A111U A145C C150U U176G here?
The reverse-splicing fitness was 0.0107.
